The supplement of paper PMC10567573

B1: NP_015628.1 (parent)
chain: EQRNSRWNTVLRAVKAKTHHLEP
B2: APBB1IP (parent)
chain: FNYSVGFKDLNESLNALEDQDLDA

Variants of: B1
Assay: protein stability index of a GFP-peptide fusion (GPS, HEK-293T) (PSI 1-6); higher = more stable
Conditions: c terminus: native

Point of comparison: EQRNSRWNTVLRAVQAKTHHLEP, protein stability index 3.05. Against it:
- EQRNSRWNTVLRAVKATTHHLEP — lower, 2.84
- EQRNSRWNTVLRAVKAWTHHLEP — lower, 2.62
- EQRNSRWNTVLRAVKAATHHLEP — lower, 2.77
- EQRNSRWNTVLRAVKACTHHLEP — lower, 2.61
- EQRNSRWNTVLRAVKAVTHHLEP — lower, 2.79
- EQRNSRWNTVLRAVKAYTHHLEP — lower, 2.82
- EQRNSRWNTVLRAVKAITHHLEP — lower, 2.61
- EQRNSRWNTVLRAVKAPTHHLEP — lower, 2.96
- EQRNSRWNTVLRAVKALTHHLEP — lower, 2.62
- EQRNSRWNTVLRAVKARTHHLEP — higher, 3.33
- EQRNSRWNTVLRAVKAMTHHLEP — lower, 2.91
- EQRNSRWNTVLRAVKAHTHHLEP — lower, 2.52
- EQRNSRWNTVLRAVKAETHHLEP — lower, 2.77
- EQRNSRWNTVLRAVKADTHHLEP — higher, 3.1
- EQRNSRWNTVLRAVKASTHHLEP — lower, 2.85
- EQRNSRWNTVLRAVKANTHHLEP — lower, 2.69
- EQRNSRWNTVLRAVKAFTHHLEP — lower, 2.75
- EQRNSRWNTVLRAVKAQTHHLEP — lower, 2.67
- EQRNSRWNTVLRAVKAKIHHLEP — higher, 3.12
- EQRNSRWNTVLRAVKAKNHHLEP — lower, 2.82
- EQRNSRWNTVLRAVKAKMHHLEP — lower, 2.83
- EQRNSRWNTVLRAVKAKYHHLEP — lower, 2.84
- EQRNSRWNTVLRAVKAKVHHLEP — higher, 3.12
- EQRNSRWNTVLRAVKAKDHHLEP — higher, 3.14
- EQRNSRWNTVLRAVKAKLHHLEP — higher, 3.13
- EQRNSRWNTVLRAVKAKCHHLEP — lower, 2.5
- EQRNSRWNTVLRAVKAKHHHLEP — lower, 2.76
- EQRNSRWNTVLRAVKAKGHHLEP — higher, 3.12
- EQRNSRWNTVLRAVKAKRHHLEP — higher, 3.11
- EQRNSRWNTVLRAVKAKAHHLEP — lower, 2.91
- EQRNSRWNTVLRAVKAKSHHLEP — lower, 2.29
- EQRNSRWNTVLRAVKAKKHHLEP — lower, 2.97
- EQRNSRWNTVLRAVKAKQHHLEP — higher, 3.34
- EQRNSRWNTVLRAVKAKFHHLEP — higher, 3.33
- EQRNSRWNTVLRAVKAKPHHLEP — lower, 2.93
- EQRNSRWNTVLRAVKAKEHHLEP — higher, 3.26
- EQRNSRWNTVLRAVKAKWHHLEP — higher, 3.57
- EQRNSRWNTVLRAVKAKTHILEP — higher, 3.15
- EQRNSRWNTVLRAVKAKTHALEP — lower, 2.81
- EQRNSRWNTVLRAVKAKTHPLEP — higher, 3.89
- EQRNSRWNTVLRAVKAKTHGLEP — lower, 1.9
- EQRNSRWNTVLRAVKAKTHNLEP — higher, 3.47
- EQRNSRWNTVLRAVKAKTHCLEP — lower, 2.23
- EQRNSRWNTVLRAVKAKTHFLEP — higher, 3.22
- EQRNSRWNTVLRAVKAKTHQLEP — lower, 2.89
- EQRNSRWNTVLRAVKAKTHVLEP — higher, 3.46
- EQRNSRWNTVLRAVKAKTHLLEP — higher, 3.6
- EQRNSRWNTVLRAVKAKTHSLEP — lower, 2.66
- EQRNSRWNTVLRAVKAKTHYLEP — higher, 3.25
- EQRNSRWNTVLRAVKAKTHKLEP — higher, 4.01
- EQRNSRWNTVLRAVKAKTHTLEP — higher, 3.27
- EQRNSRWNTVLRAVKAKTHELEP — higher, 3.19
- EQRNSRWNTVLRAVKAKTHDLEP — higher, 3.09
- EQRNSRWNTVLRAVKAKTHWLEP — higher, 3.46
- EQRNSRWNTVLRAVKAKTHHLRP — lower, 2.26
- EQRNSRWNTVLRAVKAKTHHLTP — higher, 3.23
- EQRNSRWNTVLRAVKAKTHHLIP — lower, 2.45
- EQRNSRWNTVLRAVKAKTHHLFP — higher, 3.55
- EQRNSRWNTVLRAVKAKTHHLNP — higher, 4.48
- EQRNSRWNTVLRAVKAKTHHLKP — higher, 4.85
- EQRNSRWNTVLRAVKAKTHHLLP — lower, 3.02
- EQRNSRWNTVLRAVKAKTHHLWP — higher, 3.6
- EQRNSRWNTVLRAVKAKTHHLHP — higher, 3.45
- EQRNSRWNTVLRAVKAKTHHLYP — higher, 3.91
- EQRNSRWNTVLRAVKAKTHHLMP — lower, 2.84
- EQRNSRWNTVLRAVKAKTHHLDP — higher, 3.21
- EQRNSRWNTVLRAVKAKTHHLCP — lower, 2.63
- EQRNSRWNTVLRAVKAKTHHLAP — lower, 2.87
- EQRNSRWNTVLRAVKAKTHHLSP — higher, 3.09
- EQRNSRWNTVLRAVKAKTHHLQP — higher, 3.28
- EQRNSRWNTVLRAVKAKTHHLPP — higher, 4.21
- EQRNSRWNTVLRAVKAKTHHLVP — higher, 3.49
- EQRNSRWNTVLRAVKAKTHHLGP — higher, 3.09
- EQRNSRWNTVLRAVKAKTAHLEP — higher, 3.34
- EQRNSRWNTVLRAVKAKTTHLEP — higher, 3.74
- EQRNSRWNTVLRAVKAKTVHLEP — higher, 3.31
- EQRNSRWNTVLRAVKAKTGHLEP — higher, 3.86
- EQRNSRWNTVLRAVKAKTMHLEP — higher, 3.37
- EQRNSRWNTVLRAVKAKTLHLEP — higher, 3.43
- EQRNSRWNTVLRAVKAKTWHLEP — higher, 3.54
- EQRNSRWNTVLRAVKAKTFHLEP — higher, 3.66
- EQRNSRWNTVLRAVKAKTEHLEP — higher, 3.75
- EQRNSRWNTVLRAVKAKTNHLEP — higher, 3.56
- EQRNSRWNTVLRAVKAKTKHLEP — higher, 3.57
- EQRNSRWNTVLRAVKAKTQHLEP — higher, 3.73
- EQRNSRWNTVLRAVKAKTIHLEP — higher, 3.44
- EQRNSRWNTVLRAVKAKTDHLEP — higher, 3.81
- EQRNSRWNTVLRAVKAKTPHLEP — lower, 2.65
- EQRNSRWNTVLRAVKAKTRHLEP — lower, 2.96
- EQRNSRWNTVLRAVKAKTYHLEP — higher, 3.07
- EQRNSRWNTVLRAVWAKTHHLEP — higher, 3.24
- EQRNSRWNTVLRAVNAKTHHLEP — higher, 3.17
- EQRNSRWNTVLRAVYAKTHHLEP — higher, 3.25
- EQRNSRWNTVLRAVAAKTHHLEP — higher, 3.24
- EQRNSRWNTVLRAVLAKTHHLEP — higher, 3.07
- EQRNSRWNTVLRAVSAKTHHLEP — higher, 3.26
- EQRNSRWNTVLRAVDAKTHHLEP — higher, 3.21
- EQRNSRWNTVLRAVHAKTHHLEP — higher, 3.22
- EQRNSRWNTVLRAVVAKTHHLEP — higher, 3.11
- EQRNSRWNTVLRAVGAKTHHLEP — higher, 3.31
- EQRNSRWNTVLRAVRAKTHHLEP — higher, 3.08
- EQRNSRWNTVLRAVIAKTHHLEP — higher, 3.1
- EQRNSRWNTVLRAVFAKTHHLEP — lower, 2.9
- EQRNSRWNTVLRAVPAKTHHLEP — higher, 3.14
- EQRNSRWNTVLRAVCAKTHHLEP — higher, 3.1
- EQRNSRWNTVLRAVTAKTHHLEP — lower, 2.99
- EQRNSRWNTVLRAVMAKTHHLEP — higher, 3.33
- EQRNSRWNTVLRAVEAKTHHLEP — higher, 3.25
- EQRNSRWNTVLRAVKAKTHHLEA — higher, 4.32
- EQRNSRWNTVLRAVKAKTHHLEK — higher, 5.17
- EQRNSRWNTVLRAVKAKTHHLEL — higher, 4.39
- EQRNSRWNTVLRAVKAKTHHLEG — higher, 4.74
- EQRNSRWNTVLRAVKAKTHHLEH — higher, 4.88
- EQRNSRWNTVLRAVKAKTHHLEV — higher, 4.13
- EQRNSRWNTVLRAVKAKTHHLEE — higher, 3.95
- EQRNSRWNTVLRAVKAKTHHLEI — higher, 4.19
- EQRNSRWNTVLRAVKAKTHHLET — higher, 4.13
- EQRNSRWNTVLRAVKAKTHHLEN — higher, 4.98
- EQRNSRWNTVLRAVKAKTHHLEF — higher, 4.51
- EQRNSRWNTVLRAVKAKTHHLEQ — higher, 5.08
- EQRNSRWNTVLRAVKAKTHHLEM — higher, 4.09
- EQRNSRWNTVLRAVKAKTHHLEY — higher, 4.4
- EQRNSRWNTVLRAVKAKTHHLER — higher, 3.9
- EQRNSRWNTVLRAVKAKTHHLED — higher, 4.92
- EQRNSRWNTVLRARKAKTHHLEP — lower, 2.96
- EQRNSRWNTVLRASKAKTHHLEP — higher, 3.28
- EQRNSRWNTVLRATKAKTHHLEP — lower, 2.97
- EQRNSRWNTVLRAYKAKTHHLEP — lower, 2.87
- EQRNSRWNTVLRAWKAKTHHLEP — higher, 3.26
- EQRNSRWNTVLRAVKQKTHHLEP — lower, 2.99
- EQRNSRWNTVLRAVKWKTHHLEP — lower, 2.92
- EQRNSRWNTVLRAVKIKTHHLEP — lower, 2.73
- EQRNSRWNTVLRAVKSKTHHLEP — higher, 3.24
- EQRNSRWNTVLRAVKEKTHHLEP — lower, 2.37
- EQRNSRWNTVLRAVKYKTHHLEP — lower, 2.78
- EQRNSRWNTVLRAVKHKTHHLEP — lower, 2.98
- EQRNSRWNTVLRAVKFKTHHLEP — lower, 3.02
- EQRNSRWNTVLRAVKMKTHHLEP — lower, 2.9
- EQRNSRWNTVLRAVKNKTHHLEP — lower, 2.35
- EQRNSRWNTVLRAVKPKTHHLEP — lower, 2.78
- EQRNSRWNTVLRAVKGKTHHLEP — lower, 2.77
- EQRNSRWNTVLRAVKDKTHHLEP — lower, 2.82
- EQRNSRWNTVLRAVKTKTHHLEP — lower, 2.78
- EQRNSRWNTVLRAVKRKTHHLEP — lower, 2.77
- EQRNSRWNTVLRAVKVKTHHLEP — lower, 2.95
- EQRNSRWNTVLRAVKAKTHHKEP — higher, 4.92
- EQRNSRWNTVLRAVKAKTHHAEP — higher, 4.09
- EQRNSRWNTVLRAVKAKTHHQEP — higher, 4.55
- EQRNSRWNTVLRAVKAKTHHTEP — higher, 4.26
- EQRNSRWNTVLRAVKAKTHHDEP — higher, 4.04
- EQRNSRWNTVLRAVKAKTHHFEP — higher, 3.82
- EQRNSRWNTVLRAVKAKTHHREP — lower, 2.08
- EQRNSRWNTVLRAVKAKTHHMEP — lower, 3.01
- EQRNSRWNTVLRAVKAKTHHNEP — higher, 4.59
- EQRNSRWNTVLRAVKAKTHHHEP — higher, 4.16
- EQRNSRWNTVLRAVKAKTHHPEP — higher, 4.27
- EQRNSRWNTVLRAVKAKTHHIEP — higher, 3.59
- EQRNSRWNTVLRAVKAKTHHYEP — higher, 3.81
- EQRNSRWNTVLRAVKAKTHHEEP — higher, 4.79
- EQRNSRWNTVLRAVKAKTHHWEP — higher, 4.04
- EQRNSRWNTVLRAVKAKTHHVEP — higher, 4.29
- EQRNSRWNTVLRAVKAKTHHGEP — higher, 3.67

Variants of: B2
Assay: as above
Conditions: c terminus: a fixed tail appended

Point of comparison: DNYSVGFKDLNESLNALEDQDLDA, protein stability index 5.74. Against it:
- FKYSVGFKDLNESLNALEDQDLDA — lower, 4.11
- FAYSVGFKDLNESLNALEDQDLDA — lower, 2.07
- FGYSVGFKDLNESLNALEDQDLDA — lower, 4.39
- FFYSVGFKDLNESLNALEDQDLDA — lower, 3.07
- FIYSVGFKDLNESLNALEDQDLDA — lower, 4.43
- FLYSVGFKDLNESLNALEDQDLDA — lower, 2.01
- FCYSVGFKDLNESLNALEDQDLDA — lower, 2.18
- FMYSVGFKDLNESLNALEDQDLDA — lower, 1.99
- FHYSVGFKDLNESLNALEDQDLDA — lower, 1.98
- FDYSVGFKDLNESLNALEDQDLDA — lower, 5.38
- FEYSVGFKDLNESLNALEDQDLDA — lower, 4.45
- VNYSVGFKDLNESLNALEDQDLDA — lower, 4.66
- WNYSVGFKDLNESLNALEDQDLDA — lower, 4.53
- ANYSVGFKDLNESLNALEDQDLDA — lower, 5
- INYSVGFKDLNESLNALEDQDLDA — lower, 4.43
- SNYSVGFKDLNESLNALEDQDLDA — lower, 4.44
- CNYSVGFKDLNESLNALEDQDLDA — lower, 4.79
- HNYSVGFKDLNESLNALEDQDLDA — lower, 5.05
- KNYSVGFKDLNESLNALEDQDLDA — lower, 4.39
- MNYSVGFKDLNESLNALEDQDLDA — lower, 5.31
- TNYSVGFKDLNESLNALEDQDLDA — lower, 5.35
- QNYSVGFKDLNESLNALEDQDLDA — lower, 5.38
- YNYSVGFKDLNESLNALEDQDLDA — lower, 4.91
- GNYSVGFKDLNESLNALEDQDLDA — lower, 4.72
- LNYSVGFKDLNESLNALEDQDLDA — lower, 4.7
- ENYSVGFKDLNESLNALEDQDLDA — lower, 5.53
- RNYSVGFKDLNESLNALEDQDLDA — lower, 5.42
- PNYSVGFKDLNESLNALEDQDLDA — lower, 5.21
- NNYSVGFKDLNESLNALEDQDLDA — lower, 5.51
